B1: Transmembrane protein 79 (Homo sapiens), Q9BSE2 (parent)
chain: MTEQETLALLEVKRSDSPEKSSPQALVPNGRQPEGEGGAESPGAESLRVGSSAGSPTAIEGAEDGLDSTVSEAATLPWGTGPQPSAPFPDPPGWRDIEPEPPESEPLTKLEELPEDDANLLPEKAARAFVPIDLQCIERQPQEDLIVRCEAGEGECRTFMPPRVTHPDPTERKWAEAVVRPPGCSCGGCGSCGDREWLRAVASVGAALILFPCLLYGAYAFLPFDVPRLPTMSSRLIYTLRCGVFATFPIVLGILVYGLSLLCFSALRPFGEPRREVEIHRRYVAQSVQLFILYFFNLAVLSTYLPQDTLKLLPLLTGLFAVSRLIYWLTFAVGRSFRGFGYGLTFLPLLSMLMWNLYYMFVVEPERMLTATESRLDYPDHARSASDYRPRPWG
partner: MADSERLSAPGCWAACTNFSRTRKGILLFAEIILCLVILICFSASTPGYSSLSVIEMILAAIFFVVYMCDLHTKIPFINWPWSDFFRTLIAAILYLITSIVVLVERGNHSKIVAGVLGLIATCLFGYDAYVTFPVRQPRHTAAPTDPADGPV
B2: AKT-interacting protein (Homo sapiens), Q9H8T0 (parent)
chain: MNPFWSMSTSSVRKRSEGEEKTLTGDVKTSPPRTAPKKQLPSIPKNALPITKPTSPAPAAQSTNGTHASYGPFYLEYSLLAEFTLVVKQKLPGVYVQPSYRSALMWFGVIFIRHGLYQDGVFKFTVYIPDNYPDGDCPRLVFDIPVFHPLVDPTSGELDVKRAFAKWRRNHNHIWQVLMYARRVFYKIDTASPLNPEAAVLYEKDIQLFKSKVVDSVKVCTARLFDQPKIEDPYAISFSPWNPSVHDEAREKMLTQKKPEEQHNKSVHVAGLSWVKPGSVQPFSKEEKTVAT
partner: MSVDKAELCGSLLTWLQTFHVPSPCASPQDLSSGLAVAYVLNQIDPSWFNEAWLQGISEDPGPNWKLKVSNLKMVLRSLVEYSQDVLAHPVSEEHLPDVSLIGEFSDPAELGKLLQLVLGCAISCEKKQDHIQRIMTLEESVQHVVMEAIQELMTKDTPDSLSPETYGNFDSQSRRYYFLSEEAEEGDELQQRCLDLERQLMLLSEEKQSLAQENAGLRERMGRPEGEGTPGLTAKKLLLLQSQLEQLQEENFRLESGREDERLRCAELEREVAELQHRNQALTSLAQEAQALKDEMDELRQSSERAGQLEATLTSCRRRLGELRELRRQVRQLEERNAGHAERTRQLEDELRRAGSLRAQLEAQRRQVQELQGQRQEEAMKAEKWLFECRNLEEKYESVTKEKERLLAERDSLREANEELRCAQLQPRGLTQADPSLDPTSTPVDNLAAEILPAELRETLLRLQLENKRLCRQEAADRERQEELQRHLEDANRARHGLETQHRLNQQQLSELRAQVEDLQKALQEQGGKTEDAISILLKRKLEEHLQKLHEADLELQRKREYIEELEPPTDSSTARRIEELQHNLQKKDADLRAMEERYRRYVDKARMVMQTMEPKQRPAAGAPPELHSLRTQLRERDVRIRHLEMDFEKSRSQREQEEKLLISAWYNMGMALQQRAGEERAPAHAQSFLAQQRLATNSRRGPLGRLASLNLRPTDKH
B3: EF-hand calcium-binding domain-containing protein 4B (Homo sapiens), Q9BSW2 (parent)
chain: MAAPDGRVVSRPQRLGQGSGQGPKGSGACLHPLDSLEQKETQEQTSGQLVMLRKAQEFFQTCDAEGKGFIARKDMQRLHKELPLSLEELEDVFDALDADGNGYLTPQEFTTGFSHFFFSQNNPSQEDAGEQVAQRHEEKVYLSRGDEDLGDMGEDEEAQFRMLMDRLGAQKVLEDESDVKQLWLQLKKEEPHLLSNFEDFLTRIISQLQEAHEEKNELECALKRKIAAYDEEIQHLYEEMEQQIKSEKEQFLLKDTERFQARSQELEQKLLCKEQELEQLTQKQKRLEGQCTALHHDKHETKAENTKLKLTNQELARELERTSWELQDAQQQLESLQQEACKLHQEKEMEVYRVTESLQREKAGLLKQLDFLRERNKHLRDERDICFQKNKAAKANTAASRASWKKRSGSVIGKYVDSRGILRSQSEEEEEVFGIPRRSSLGLSGYPLTEEEPGTGEPGPGGPYPRPLRRIISVEEDPLPQLLDGGFEQPLSKCSEEEEVSDQGVQGQIPEAPPLKLTPTSPRGQPVGKEALCKEESSPSAPDRLFKIVFVGNSAVGKTSFLRRFCEDRFSPGMAATVGIDYRVKTLNVDNSQVALQLWDTAGQERYRCITQQFFRKADGVIVMYDLTDKQSFLSVRRWLSSVEEAVGDRVPVLLLGNKLDNEKEREVPRGLGEQLATENNLIFYECSAYSGHNTKESLLHLARFLKEQEDTVREDTIQVGHPAKKKSCCG
partner: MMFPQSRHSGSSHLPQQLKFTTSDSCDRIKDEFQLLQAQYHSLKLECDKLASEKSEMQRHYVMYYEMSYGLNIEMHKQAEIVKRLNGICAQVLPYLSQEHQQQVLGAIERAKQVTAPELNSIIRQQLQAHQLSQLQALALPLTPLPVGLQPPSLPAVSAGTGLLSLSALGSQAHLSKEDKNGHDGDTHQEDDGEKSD
B4: G-patch domain and KOW motifs-containing protein (Homo sapiens), Q92917 (parent)
chain: MADSKEGVLPLTAASTAPISFGFTRTSARRRLADSGDGAGPSPEEKDFLKTVEGRELQSVKPQEAPKELVIPLIQNGHRRQPPARPPGPSTDTGALADGVVSQAVKELIAESKKSLEERENAGVDPTLAIPMIQKGCTPSGEGADSEPRAETVPEEANYEAVPVEAYGLAMLRGMGWKPGEGIGRTFNQVVKPRVNSLRPKGLGLGANLTEAQALTPTGPSRMPRPDEEQEKDKEDQPQGLVPGGAVVVLSGPHRGLYGKVEGLDPDNVRAMVRLAVGSRVVTVSEYYLRPVSQQEFDKNTLDLRQQNGTASSRKTLWNQELYIQQDNSERKRKHLPDRQDGPAAKSEKAAPRSQHWLHRDLRVRFVDNMYKGGQYYNTKMIIEDVLSPDTCVCRTDEGRVLEGLREDMLETLVPKAEGDRVMVVLGPQTGRVGHLLSRDRARSRALVQLPRENQVVELHYDAICQYMGPSDTDDD
partner: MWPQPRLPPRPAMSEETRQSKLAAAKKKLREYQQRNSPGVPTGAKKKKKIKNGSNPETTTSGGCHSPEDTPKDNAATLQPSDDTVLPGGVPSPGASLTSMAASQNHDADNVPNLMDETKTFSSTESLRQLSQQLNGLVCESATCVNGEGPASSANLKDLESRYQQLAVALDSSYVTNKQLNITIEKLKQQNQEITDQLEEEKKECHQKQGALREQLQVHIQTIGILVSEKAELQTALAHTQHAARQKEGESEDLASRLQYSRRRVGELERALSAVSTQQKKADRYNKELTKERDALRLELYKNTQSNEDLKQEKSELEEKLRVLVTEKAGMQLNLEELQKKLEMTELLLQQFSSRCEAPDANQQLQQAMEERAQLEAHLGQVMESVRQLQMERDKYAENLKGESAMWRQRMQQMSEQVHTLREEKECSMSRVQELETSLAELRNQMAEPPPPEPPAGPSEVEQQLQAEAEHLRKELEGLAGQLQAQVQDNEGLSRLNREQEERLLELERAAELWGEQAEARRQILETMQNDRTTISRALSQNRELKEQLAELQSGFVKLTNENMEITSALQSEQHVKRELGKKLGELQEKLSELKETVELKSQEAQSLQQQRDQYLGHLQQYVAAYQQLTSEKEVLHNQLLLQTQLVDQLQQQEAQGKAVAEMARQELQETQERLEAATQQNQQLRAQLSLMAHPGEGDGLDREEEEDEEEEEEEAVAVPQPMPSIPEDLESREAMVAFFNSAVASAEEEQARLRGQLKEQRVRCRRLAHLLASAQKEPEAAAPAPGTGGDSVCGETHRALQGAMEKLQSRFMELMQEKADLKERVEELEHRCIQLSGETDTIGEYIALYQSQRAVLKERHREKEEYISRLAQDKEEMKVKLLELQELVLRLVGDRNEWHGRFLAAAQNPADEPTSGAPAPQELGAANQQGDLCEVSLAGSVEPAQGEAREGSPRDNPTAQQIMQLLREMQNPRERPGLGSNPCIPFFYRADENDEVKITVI
B5: Keratin, type II cytoskeletal 6A (Homo sapiens), P02538 (parent)
chain: MASTSTTIRSHSSSRRGFSANSARLPGVSRSGFSSVSVSRSRGSGGLGGACGGAGFGSRSLYGLGGSKRISIGGGSCAISGGYGSRAGGSYGFGGAGSGFGFGGGAGIGFGLGGGAGLAGGFGGPGFPVCPPGGIQEVTVNQSLLTPLNLQIDPTIQRVRAEEREQIKTLNNKFASFIDKVRFLEQQNKVLETKWTLLQEQGTKTVRQNLEPLFEQYINNLRRQLDSIVGERGRLDSELRGMQDLVEDFKNKYEDEINKRTAAENEFVTLKKDVDAAYMNKVELQAKADTLTDEINFLRALYDAELSQMQTHISDTSVVLSMDNNRNLDLDSIIAEVKAQYEEIAQRSRAEAESWYQTKYEELQVTAGRHGDDLRNTKQEIAEINRMIQRLRSEIDHVKKQCANLQAAIADAEQRGEMALKDAKNKLEGLEDALQKAKQDLARLLKEYQELMNVKLALDVEIATYRKLLEGEECRLNGEGVGQVNISVVQSTVSSGYGGASGVGSGLGLGGGSSYSYGSGLGVGGGFSSSSGRAIGGGLSSVGGGSSTIKYTTTSSSSRKSYKH
partner: B4 partner

The variants in one assay derive from B1. Conditions: with plp2_human PLP2, Q04941.
D144G: the “effect of a mutation on the interaction” value is on record as “with no effect”.
Take V147M: the “effect of a mutation on the interaction” value is “with no effect”.

Variants of B2 are the subject of a further assay. The conditions noted are these: with hook2_human HOOK2, Q96ED9.
R33Q: the “effect of a mutation on the interaction” value is “with no effect”.

Variants of B3 are the subject of another assay. Conditions: with tle5_human TLE5, Q08117.
Take H212Q: the “effect of a mutation on the interaction” value is listed as “with no effect”.

Variants of B4 are the subject of a further assay. Conditions: with goga2_human GOLGA2, Q08379.
On to V393A, for which the “effect of a mutation on the interaction” value was “with no effect”.
Still for that read-out and setting: in the case of A129T it was “with no effect”.

In a further assay the parent is B5. The conditions noted are these: with goga2_human GOLGA2, Q08379.
On to R559G, for which the “effect of a mutation on the interaction” value is recorded as “with no effect”.
Turning to L210M, the “effect of a mutation on the interaction” value was “with no effect”.
The same measure, in the same setting: in the case of R415H it was “with no effect”; in that of A335T, “with no effect”; in that of V523F, “with no effect”.

The values above are taken from IntAct's records for PubMed 31515488.
